# Data taken from patent publication US20180250358A1, “GHRH AGONISTS FOR THE TREATMENT OF ISCHEMIC DISORDERS” (published 2018).
# Non-standard residues stand in square brackets, D forms with d. No end group written: not given here. *: point of attachment. Phe(F5) = N[C@@H](Cc1c(F)c(F)c(F)c(F)c1F)C(=O)O; Desaminotyrosyl = O=C(CCc1ccc(O)cc1)*; NMeY = CN[C@@H](Cc1ccc(O)cc1)C(=O)O; Agmatine = N=C(N)NCCCCN*; NMeA = CN[C@@H](C)C(=O)O; Nle = CCCC[C@H](N)C(=O)O; Orn = NCCC[C@H](N)C(=O)O; Abu = CC[C@H](N)C(=O)O; Aoc = NCCCCCCCC(=O)O; Ava = NCCCCC(=O)O; GABA = NCCCC(=O)O
# T1: GHRH receptor of human pituitary membranes (human, UniProt Q02643)
# T1 sequence: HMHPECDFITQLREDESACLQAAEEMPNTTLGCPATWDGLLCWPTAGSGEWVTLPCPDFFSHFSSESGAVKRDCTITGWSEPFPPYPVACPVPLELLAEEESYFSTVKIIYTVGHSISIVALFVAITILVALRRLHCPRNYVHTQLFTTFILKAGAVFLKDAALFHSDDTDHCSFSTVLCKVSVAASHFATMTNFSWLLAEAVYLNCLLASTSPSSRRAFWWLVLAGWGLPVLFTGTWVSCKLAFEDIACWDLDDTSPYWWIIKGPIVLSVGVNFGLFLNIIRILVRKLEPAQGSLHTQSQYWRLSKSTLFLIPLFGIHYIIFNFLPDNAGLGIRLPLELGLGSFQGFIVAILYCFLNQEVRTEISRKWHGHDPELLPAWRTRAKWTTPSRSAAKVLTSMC
# Target: T1, GHRH receptor of human pituitary …
# Assay: competition vs 125I-JV-1-42, human pituitary membranes;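 also: pituitaries used were normal human glands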
Binder,IC50 [nM],relative affinity (binding potency) vs JI-38 [vs JI-38=1]
"[Desaminotyrosyl][dA]DAIFTNSYR[Orn]VL[Abu]QLSAR[Orn]LLQDI[Nle]DR[Aoc]-NH2 (SMILES CCCC[C@H](NC(=O)[C@@H](NC(=O)[C@H](CC(=O)O)NC(=O)[C@H](CCC(N)=O)NC(=O)[C@H](CC(C)C)NC(=O)[C@H](CC(C)C)NC(=O)[C@H](CCCN)NC(=O)[C@H](CCCNC(=N)N)NC(=O)[C@H](C)NC(=O)[C@H](CO)NC(=O)[C@H](CC(C)C)NC(=O)[C@H](CCC(N)=O)NC(=O)[C@H](CC)NC(=O)[C@H](CC(C)C)NC(=O)[C@@H](NC(=O)[C@H](CCCN)NC(=O)[C@H](CCCNC(=N)N)NC(=O)[C@H](Cc1ccc(O)cc1)NC(=O)[C@H](CO)NC(=O)[C@H](CC(N)=O)NC(=O)[C@@H](NC(=O)[C@H](Cc1ccccc1)NC(=O)[C@@H](NC(=O)[C@H](C)NC(=O)[C@H](CC(=O)O)NC(=O)[C@@H](C)NC(=O)CCc1ccc(O)cc1)[C@@H](C)CC)[C@@H](C)O)C(C)C)[C@@H](C)CC)C(=O)N[C@@H](CC(=O)O)C(=O)N[C@@H](CCCNC(=N)N)C(=O)NCCCCCCCC(N)=O) [P-21300 [Dat^1, D-Ala^2, Orn^12, Abu^15, Orn^21, Nle^27, Asp^28, Amc^30]hGHRH(1-30)NH2]",3.61,1.2
"[NMeY]ADAIFTNSYR[Orn]VL[Abu]QLSAR[Orn]LLQDI[Nle]DR[Aoc]-NH2 (N-terminus assumed; SMILES CCCC[C@H](NC(=O)[C@@H](NC(=O)[C@H](CC(=O)O)NC(=O)[C@H](CCC(N)=O)NC(=O)[C@H](CC(C)C)NC(=O)[C@H](CC(C)C)NC(=O)[C@H](CCCN)NC(=O)[C@H](CCCNC(=N)N)NC(=O)[C@H](C)NC(=O)[C@H](CO)NC(=O)[C@H](CC(C)C)NC(=O)[C@H](CCC(N)=O)NC(=O)[C@H](CC)NC(=O)[C@H](CC(C)C)NC(=O)[C@@H](NC(=O)[C@H](CCCN)NC(=O)[C@H](CCCNC(=N)N)NC(=O)[C@H](Cc1ccc(O)cc1)NC(=O)[C@H](CO)NC(=O)[C@H](CC(N)=O)NC(=O)[C@@H](NC(=O)[C@H](Cc1ccccc1)NC(=O)[C@@H](NC(=O)[C@H](C)NC(=O)[C@H](CC(=O)O)NC(=O)[C@H](C)NC(=O)[C@H](Cc1ccc(O)cc1)NC)[C@@H](C)CC)[C@@H](C)O)C(C)C)[C@@H](C)CC)C(=O)N[C@@H](CC(=O)O)C(=O)N[C@@H](CCCNC(=N)N)C(=O)NCCCCCCCC(N)=O) [P-21301 [N-Me-Tyr^1, Orn^12, Abu^15, Orn^21, Nle^27, Asp^28, Amc^30]hGHRH(1-30)NH2]",2.99,1.45
"[NMeY][dA]DAIFTNSYR[Orn]VL[Abu]QLSAR[Orn]LLQDI[Nle]DR[Aoc]-NH2 (N-terminus assumed; SMILES CCCC[C@H](NC(=O)[C@@H](NC(=O)[C@H](CC(=O)O)NC(=O)[C@H](CCC(N)=O)NC(=O)[C@H](CC(C)C)NC(=O)[C@H](CC(C)C)NC(=O)[C@H](CCCN)NC(=O)[C@H](CCCNC(=N)N)NC(=O)[C@H](C)NC(=O)[C@H](CO)NC(=O)[C@H](CC(C)C)NC(=O)[C@H](CCC(N)=O)NC(=O)[C@H](CC)NC(=O)[C@H](CC(C)C)NC(=O)[C@@H](NC(=O)[C@H](CCCN)NC(=O)[C@H](CCCNC(=N)N)NC(=O)[C@H](Cc1ccc(O)cc1)NC(=O)[C@H](CO)NC(=O)[C@H](CC(N)=O)NC(=O)[C@@H](NC(=O)[C@H](Cc1ccccc1)NC(=O)[C@@H](NC(=O)[C@H](C)NC(=O)[C@H](CC(=O)O)NC(=O)[C@@H](C)NC(=O)[C@H](Cc1ccc(O)cc1)NC)[C@@H](C)CC)[C@@H](C)O)C(C)C)[C@@H](C)CC)C(=O)N[C@@H](CC(=O)O)C(=O)N[C@@H](CCCNC(=N)N)C(=O)NCCCCCCCC(N)=O) [P-21303 [N-Me-Tyr^1, D-Ala^2, Orn^12, Abu^15, Orn^21, Nle^27, Asp^28, Amc^30]hGHRH(1-30)NH2]",1.87,2.32
"[NMeY]ADAIFTQSYR[Orn]VL[Abu]QLSAR[Orn]LLQDI[Nle]DR[Ava]-NH2 (N-terminus assumed; SMILES CCCC[C@H](NC(=O)[C@@H](NC(=O)[C@H](CC(=O)O)NC(=O)[C@H](CCC(N)=O)NC(=O)[C@H](CC(C)C)NC(=O)[C@H](CC(C)C)NC(=O)[C@H](CCCN)NC(=O)[C@H](CCCNC(=N)N)NC(=O)[C@H](C)NC(=O)[C@H](CO)NC(=O)[C@H](CC(C)C)NC(=O)[C@H](CCC(N)=O)NC(=O)[C@H](CC)NC(=O)[C@H](CC(C)C)NC(=O)[C@@H](NC(=O)[C@H](CCCN)NC(=O)[C@H](CCCNC(=N)N)NC(=O)[C@H](Cc1ccc(O)cc1)NC(=O)[C@H](CO)NC(=O)[C@H](CCC(N)=O)NC(=O)[C@@H](NC(=O)[C@H](Cc1ccccc1)NC(=O)[C@@H](NC(=O)[C@H](C)NC(=O)[C@H](CC(=O)O)NC(=O)[C@H](C)NC(=O)[C@H](Cc1ccc(O)cc1)NC)[C@@H](C)CC)[C@@H](C)O)C(C)C)[C@@H](C)CC)C(=O)N[C@@H](CC(=O)O)C(=O)N[C@@H](CCCNC(=N)N)C(=O)NCCCCC(N)=O) [P-22325 [N-Me-Tyr^1, Gln^8, Orn^12, Abu^15, Orn^21, Nle^27, Asp^28, Apa^30]hGHRH(1-30)NH2]",3.8,1.14
"[Desaminotyrosyl][dA]DAIFT[NMeA]SYR[Orn]VL[Abu]QLSAR[Orn]LLQDI[Nle]D[Agmatine] (SMILES CCCC[C@H](NC(=O)[C@@H](NC(=O)[C@H](CC(=O)O)NC(=O)[C@H](CCC(N)=O)NC(=O)[C@H](CC(C)C)NC(=O)[C@H](CC(C)C)NC(=O)[C@H](CCCN)NC(=O)[C@H](CCCNC(=N)N)NC(=O)[C@H](C)NC(=O)[C@H](CO)NC(=O)[C@H](CC(C)C)NC(=O)[C@H](CCC(N)=O)NC(=O)[C@H](CC)NC(=O)[C@H](CC(C)C)NC(=O)[C@@H](NC(=O)[C@H](CCCN)NC(=O)[C@H](CCCNC(=N)N)NC(=O)[C@H](Cc1ccc(O)cc1)NC(=O)[C@H](CO)NC(=O)[C@H](C)N(C)C(=O)[C@@H](NC(=O)[C@H](Cc1ccccc1)NC(=O)[C@@H](NC(=O)[C@H](C)NC(=O)[C@H](CC(=O)O)NC(=O)[C@@H](C)NC(=O)CCc1ccc(O)cc1)[C@@H](C)CC)[C@@H](C)O)C(C)C)[C@@H](C)CC)C(=O)N[C@@H](CC(=O)O)C(=O)NCCCCNC(=N)N) [P-20357 [Dat^1, D-Ala^2, N-Me-Ala^8, Orn^12, Abu^15, Orn^21, Nle^27, Asp^28, Agm^29]hGHRH(1-29)NH2]",0.86,5.06
"[NMeY][dA]DAI[Phe(F5)]TNSYR[Orn]VL[Abu]QLSAR[Orn]LLQDI[Nle]D[Agmatine] [P-20359 [N-Me-Tyr^1, D-Ala^2, Fpa5^6, Orn^12, Abu^15, Orn^21, Nle^27, Asp^28, Agm^29]hGHRH(1-29)NH2]",3.05,1.43
"YADAIFTNSYRKVLGQLSARKLLQDIMSRQ (N-Me-Tyr^1; D-Ala^2; Orn^12; Abu^15; Orn^21; Nle^27; Gab^30 (in place of Gln^30); C-terminal -NH2) [P-25501 [N-Me-Tyr^1, D-Ala^2, Orn^12, Abu^15, Orn^21, Nle^27, Gab^30]hGHRH(1-30)NH2]",1.07,4.07
"YADAIFTNSYRKVLGQLSARKLLQDIMSRQ (N-Me-Tyr^1; Abu^2; Orn^12; Abu^15; Orn^21; Nle^27; Gab^30 (in place of Gln^30); C-terminal -NH2) [P-25503 [N-Me-Tyr^1, Abu^2, Orn^12, Abu^15, Orn^21, Nle^27, Gab^30]hGHRH(1-30)NH2]",1.18,3.67
"[Desaminotyrosyl]ADAIFTQSYH[Orn]VL[Abu]QLSAH[Orn]LLQDI[Nle]DR-NHMe (SMILES CCCC[C@H](NC(=O)[C@@H](NC(=O)[C@H](CC(=O)O)NC(=O)[C@H](CCC(N)=O)NC(=O)[C@H](CC(C)C)NC(=O)[C@H](CC(C)C)NC(=O)[C@H](CCCN)NC(=O)[C@H](Cc1c[nH]cn1)NC(=O)[C@H](C)NC(=O)[C@H](CO)NC(=O)[C@H](CC(C)C)NC(=O)[C@H](CCC(N)=O)NC(=O)[C@H](CC)NC(=O)[C@H](CC(C)C)NC(=O)[C@@H](NC(=O)[C@H](CCCN)NC(=O)[C@H](Cc1c[nH]cn1)NC(=O)[C@H](Cc1ccc(O)cc1)NC(=O)[C@H](CO)NC(=O)[C@H](CCC(N)=O)NC(=O)[C@@H](NC(=O)[C@H](Cc1ccccc1)NC(=O)[C@@H](NC(=O)[C@H](C)NC(=O)[C@H](CC(=O)O)NC(=O)[C@H](C)NC(=O)CCc1ccc(O)cc1)[C@@H](C)CC)[C@@H](C)O)C(C)C)[C@@H](C)CC)C(=O)N[C@@H](CC(=O)O)C(=O)N[C@@H](CCCNC(=N)N)C(=O)NC) [P-27413 [Dat^1, Gln^8, His^11, Orn^12, Abu^15, His^20, Orn^21, Nle^27, Asp^28]hGHRH(1-29)NH-CH3]",2.45,1.78
"YADAIFTNSYRKVLGQLSARKLLQDIMSRQ (N-Me-Tyr^1; D-Ala^2; Fpa5^6; Orn^12; Abu^15; Orn^21; Nle^27; Gab^30 (in place of Gln^30); C-terminal -NH-CH3) [P-27414 [N-Me-Tyr^1, D-Ala^2, Fpa5^6, Orn^12, Abu^15, Orn^21, Nle^27, Gab^30]hGHRH(1-30)NH-CH3]",1.56,2.79
"YADAIFTNSYRKVLGQLSARKLLQDIMSRQ (N-Me-Tyr^1; Orn^12; Abu^15; Orn^21; Nle^27; Gab^30 (in place of Gln^30); C-terminal -NH-CH3) [P-27415 [N-Me-Tyr^1, Orn^12, Abu^15, Orn^21, Nle^27, Gab^30]hGHRH(1-30)NH-CH3]",3.02,1.44
"[NMeY]ADAIFTQSYR[Orn]VL[Abu]QLSAR[Orn]LLQDI[Nle]SRQ-{GABA-NH2} [P-29703 [N-Me-Tyr^1, Gln^8, Orn^12, Abu^15, Orn^21, Nle^27, Gln-Gab^30]hGHRH(1-30)NH2]",1.22,3.57
"[Desaminotyrosyl][dA]DAIFTNSYR[Orn]VL[Abu]QLSAR[Orn]LLQDI[Nle]DR-NHMe (SMILES CCCC[C@H](NC(=O)[C@@H](NC(=O)[C@H](CC(=O)O)NC(=O)[C@H](CCC(N)=O)NC(=O)[C@H](CC(C)C)NC(=O)[C@H](CC(C)C)NC(=O)[C@H](CCCN)NC(=O)[C@H](CCCNC(=N)N)NC(=O)[C@H](C)NC(=O)[C@H](CO)NC(=O)[C@H](CC(C)C)NC(=O)[C@H](CCC(N)=O)NC(=O)[C@H](CC)NC(=O)[C@H](CC(C)C)NC(=O)[C@@H](NC(=O)[C@H](CCCN)NC(=O)[C@H](CCCNC(=N)N)NC(=O)[C@H](Cc1ccc(O)cc1)NC(=O)[C@H](CO)NC(=O)[C@H](CC(N)=O)NC(=O)[C@@H](NC(=O)[C@H](Cc1ccccc1)NC(=O)[C@@H](NC(=O)[C@H](C)NC(=O)[C@H](CC(=O)O)NC(=O)[C@@H](C)NC(=O)CCc1ccc(O)cc1)[C@@H](C)CC)[C@@H](C)O)C(C)C)[C@@H](C)CC)C(=O)N[C@@H](CC(=O)O)C(=O)N[C@@H](CCCNC(=N)N)C(=O)NC) [P-27400 [Dat^1, D-Ala^2, Orn^12, Abu^15, Orn^21, Nle^27, Asp^28]hGHRH(1-29)NH-CH3]",3.35,1.3
